Consider three molecules from US20250303000A1, “COMPOSITIONS AND METHODS FOR INDUCIBLE ALTERNATIVE SPLICING REGULATION OF GENE EXPRESSION” (THE CHILDREN'S HOSPITAL OF PHILADELPHIA, priority 2022, published 2025).

The test system of one series is loxP-STOP cassette. The experiment in a line: In vivo gene editing in liver of Ai14 mice (FACS, histology, genomic DNA PCR, Sanger sequencing). Particulars: LMI070 50 mg kg-1, 7 days after LMI070. The text has this:
FIGS. 1A-1H. Generation of the miniXon cassette and assessment of miniXon control of SaCas9 for in vivo gene editing in liver. a, Cartoon depicting the AAV genome size with the SF3B3-Xon and SF3B3-miniXon cassettes. b, Luciferase induction in HEK293 cells transfected with SF3B3-miniXon-luciferase or SF3B3-Xon-luciferase in response to varying doses of LMI070. All samples are normalized to Renilla luciferase activity and are relative to DMSO treated cells. Data are the mean±s.e.m. of 8 biological replicates (***P<0.001 versus SF3B3.Xon, two-way ANOVA followed by Bonferroni's post hoc test). c, Splicing inclusion assays of the LMI070-induced exon at 100 nM LMI070. Pseudo exon inclusion in the Xon cassette was detected using primers flanking the pseudoexon (left) or by priming within the novel exon sequence (right; 4 technical replicates). d, Experimental design. […]
The inventors have previously developed switch-on cassettes from LMI070-responsive exons, including from the minimal intronic intervening sequences necessary to recapitulate splicing of pseudoexons in SF3B3 (SF3B3.X^on; X^on). […] AAV8-miniX^on-SaCas9 plus single-guide RNAs targeting the loxP-STOP sequence in Ai14 mice were administered intravenously; after several weeks, LMI070 was administered and gene editing was assessed 7 days later (FIG. 1D). […]

Another series has as its system luciferase. Briefly: Luciferase induction in HEK293 cells transfected with switch cassette-luciferase and treated with LMI070. The format is cell-based, human. Particulars: varying doses of LMI070, 24 h. The source says: FIGS. 1A-1H. Generation of the miniXon cassette and assessment of miniXon control of SaCas9 for in vivo gene editing in liver. a, Cartoon depicting the AAV genome size with the SF3B3-Xon and SF3B3-miniXon cassettes. b, Luciferase induction in HEK293 cells transfected with SF3B3-miniXon-luciferase or SF3B3-Xon-luciferase in response to varying doses of LMI070. All samples are normalized to Renilla luciferase activity and are relative to DMSO treated cells. Data are the mean±s.e.m. of 8 biological replicates (***P<0.001 versus SF3B3.Xon, two-way ANOVA followed by Bonferroni's post hoc test). c, Splicing inclusion assays of the LMI070-induced exon at 100 nM LMI070. Pseudo exon inclusion in the Xon cassette was detected using primers flanking the pseudoexon (left) or by priming within the novel exon sequence (right; 4 technical replicates). d, Experimental design. Mice were injected with AAV8-miniXon-SaCas9 plus AAV8-sgAi14-eGFP (1×10^12 viral genomes, 1:1 ratio) and 2 weeks later dosed with vehicle or LMI070 at 50 mg kg-1 to induce SaCas9 expression and editing of the loxP-STOP cassette (guides: sgA14_1: 5′-[…]-3′, sgAi14_2: 5′-[…]-3′). One week later, mice were euthanized, and livers processed to assess gene editing by genomic DNA PCR, histology and FACS of isolated hepatocytes. e, Representative FACS analysis of hepatocytes obtained from Ai14 mice after LMI070 or vehicle treatment. The gating/sorting strategy (above), and the percentage of tdTomato expressing cells for each condition (below) is shown (4 biological replicates). f, Representative photomicrographs of liver sections obtained from AAV injected Ai14 mice 1-week after LMI070 treatment. tdTomato expression (red) is evident in LMI070 treated mice (5 mice per group; scale bars, 100 μm). g, SaCas9 mediated editing of the loxP-STOP cassette in Ai14 mice as detected by PCR assay of liver genomic DNA (3 of 5 mice with guides plus LMI, 2 of 4 mice with guides plus vehicle, 1 of 2 untreated mice are shown). […] The sequence shown is represented in SEQ ID NO: 29.
FIG. 2. Comparison of the miniX^on, SF3B3.miniXS3B (miniXS3B), and SF3B3.miniXS3B2 (miniXS3B2) systems for luciferase induction. To increase expression and induction of the miniXon cassette in response to LMI070, the kozak sequence within the LMI070 induced translation initiation exon was optimized, and splice sites located within the upstream and downstream intron eliminated. […]
To test these switches, the cassettes were cloned upstream of luciferase or cDNA. HEK293 cells were transfected with the candidate cassettes, treated with LMI070, and luciferase activity expression determined 24 h later.

Another series has as its system SaCas9. Briefly: SaCas9 protein levels by western blot in HEK293 cells treated with DMSO or LMI070. Particulars: for SaCas9 protein level, DMSO treated cells / SaCas9 protein induction after LMI070 treatment: 24 h; for SaCas9 protein levels relative to SF3B3.miniXon cassette / SaCas9 protein induction after LMI070 treatment: LMI070 (100 nM). The format is cell-based, human. The procedure: FIG. 3. Comparison of the miniX^on (miX^on), SF3B3.miniXS3B (m3B), and SF3B3.miniXS3B2 (m3B2) systems for HD editing control. (top) Cartoon depicting X^on splicing system for controlling Cas9 protein translation in response to LMI070. (middle, bottom) Bicistronic plasmids containing Xon.SaCas9 or miniXon.SaCas9 expression cassette together with a CMVeGFP expression cassettes were transfected in HEK293 cells and treated with DMSO (middle) or LMI070 (100 nM) (bottom) and Cas9 protein levels were determined by western blot 24 h later. eGFP proteins served as transfection control. Western blot is representative of 4 biological replicates.
While gene editing approaches provide an enormous opportunity for altering or removing disease alleles, prolonged expression of the editing machinery from viral vectors could be problematic. The editing enzymes are foreign proteins and may induce immune responses, and prolonged gene expression would increase opportunities for off-target editing (Charlesworth et al., 2019; Vakulskas et al., 2018). To test the efficacy of SF3B3.miXS3B and SF3B3.miXS3B2 to control translation of CRISPR effector proteins, SF3B3.miXS3B and SF3B3.miXS3B2-SaCas9-CRISPR expression cassettes were generated and SaCas9 protein levels were quantified in response to DMSO or LMI070 treatment in HEK293 cells (FIG. 3A).

On to `CC1(C)CC(Oc2ccc(-c3ccc(-c4cn[nH]c4)cc3O)nn2)CC(C)(C)N1` [LMI070, 5-(1H-Pyrazol-4-yl)-2-(6-((2,2,6,6-tetramethylpiperidin-4-yl)oxy)pyridazin-3-yl) phenol], for which, in the series with loxP-STOP cassette (Ai14 mice liver), the “Editing of the loxP-STOP cassette (genomic DNA PCR, 355 bp product, Sanger sequencing)” value is given as “observed”. Also, the “tdTomato expression in hepatocytes / liver sections” value in the series on loxP-STOP cassette (Ai14 mice, AAV8-miniXon-SaCas9 plus AAV8-sgAi14-eGFP i.v.) is “evident”.

B1: miniXS3B: miniX^on cassette with optimized Kozak/ATG and cryptic splicing sites eliminated; SEQ ID NO: 1 (nucleic acid)
DNA: TTTAAACAAGCTTGGCAATCCGGTACTGTTGGTAAATTTCTCTACAACTTAACCTTACAGAGAGCCACTGGCTTCAGCTTTGCCTTTCTTGGTAACTTTTCTGGTAAGTTCTCTCGTTACCATCTTTTGAAATTTTAAGTGAATTAATACATATCTTGCTTAATCTCTTGTGCAAAAAATGTTTTCCATTTATGACAAAACAAAAATTGTGTGAAATTTCAAATATTGGATTAGGAAATACAAAGTTACTGAAAGTGAGGTACTAATGTTTATAAAATAAAAACTTTTTCTTGCCATTTGCAGATTAACATTTTTGAGTCAATCCAAGTGCCACCATGGAAAAAGTTCATGATTGTGTAGAGTAAGACATAATTTTGTTGAAATTTAACTCTGAATACTTAATGTGGTACTGAATACTTAATGTGGTACTGAGAAGCAGCCTAACTGACCACACAACATTCCACGCCTGGCTAATTTTTGTATTTTTAATAAAAACGGGGTTTCACCATGGTGGCCGGGCTGGTTCTGGTTGTTTATGATCTTTATTTTTTGGTGATCTAGGAACCAAACAACAAAAAATTGTTGTTTCCCGTGGGTCGGATCC
modifications: SF3B3.miniXS3B (m3B; miniXS3B; XS3B)
Regarding B1, in the series on luciferase, the “Luciferase induction relative to X^on and miniX^on” value was “improved induction relative to X^on and miniX^on”; the “Protein levels (luciferase) relative to SF3B3.miniX^on cassette” value was “higher protein levels relative to the previous SF3B3.miniX^on cassette”. For the same molecule, in the series on SaCas9, the “SaCas9 protein level, DMSO treated cells” value is listed as “almost undetectable”; the “SaCas9 protein levels relative to SF3B3.miniXon cassette” value is “higher”; the “SaCas9 protein induction after LMI070 treatment” value is on record as “evident”.

B2: miniXS3B2: miniX^on cassette with optimized Kozak/ATG and cryptic splicing sites eliminated; SEQ ID NO: 2 (nucleic acid)
DNA: GTTTAAACAAGCTTGGCAATCCGGTACTGTTGGTAAATTTCTCTACAACTTAACCTTACAGAGAGCCACTGGCTTCAGCTTTGCCTTTCTTGGTAACTTTTCTGGTAAGTTCTCTCGTTACCATCTTTTGAAATTTTAAATGAATTAATACATATCTTGCTTAATCTCTTGTGCAAAAAATGTTTTCCATTTATGACAAAACAAAAATTGTGTGAAATTTCAAATATTGGATTAAAAAATACAAAGTTACGGAAAATGAGGTACTAATGTTTATAAAATAAAAACTTTTTCTTGCCATTTGCAGATTAACATTTTTGAGTCAATCCAAGTGCCACCATGGAAAAAGTTCATGATTGTGTAGAGTAAGACATAATTTTGTTGAAATTTAACTCTGAATACTTAATGTGGTACTGAATACTTAATGTGGTACTGAGAAGCAGCCTAACTGACCACACAACATTCCACGCCTGGCTAATTTTTGTATTTTTAATAAAAACGGGGTTTCACCATGGTGGCCGGGCTGGTTCTGGTTGTTTATGATCTTTATTTTTTGGTGATCTAGGAACCAAACAACAAAAAATTGTTGTTTCCCGTGGGTCGGATCC
modifications: SF3B3.miniXS3B2 (m3B2; miniXS3B2; XS3B2)
In the case of B2, in the series with luciferase, the “Luciferase induction relative to X^on and miniX^on” value was “improved induction relative to X^on and miniX^on”; the “Protein levels (luciferase) relative to SF3B3.miniX^on cassette” value was “higher protein levels relative to the previous SF3B3.miniX^on cassette”. In the series on SaCas9, the “SaCas9 protein level, DMSO treated cells” value is recorded as “almost undetectable”; the “SaCas9 protein levels relative to SF3B3.miniXon cassette” value was “higher”; the “SaCas9 protein induction after LMI070 treatment” value is on record as “evident”.
